The record followed here is US20010052137A1, “Axin domain-like polypeptide inhibitors of glycogen synthase kinase 3 beta activity and activators of wnt signaling” (Trustees of the University of Pennsylvania, priority 2000, published 2001).

The subject of experiment [1] is GSK-3 beta. Briefly: In ovo tau phosphorylation assay: GSK-3 beta and Xaxin constructs co-expressed in Xenopus oocytes. The format is cell-based. The note with it: construct co-expressed with GSK-3 beta in Xenopus oocytes; tau microinjected; PHF-1 immunoblot. The protocol: Stage VI Xenopus oocytes were isolated by collagenase treatment (Smith et al., 1994, Meth. Cell Biol. 36:45-58) and were injected with mRNA prepared by in vitro transcription (mMessage Machine™; Ambion, Austin, Tex.). 10 nanoliters of mRNA (containing 1-2 nanograms per nanoliter) was injected for each construct (unless otherwise specified), and the injected oocytes were incubated for 16 hours at 18° C. To analyze the effects of Xaxin constructs on dorsal-ventral pattern formation, Xenopus embryos were injected with 10 nanoliters of mRNA (0.1-0.2 nanogram per nanoliter) into one dorsal or ventral cell of a 4 cell embryo and dorsal axes were assessed at the tadpole stage. For Xaxin co-immunoprecipitation, fertilized eggs were injected with 10 nanoliters of Xaxin tagged with Myc, with hemagglutinin, or with both Myc and hemagglutinin (1 nanogram per nanoliter) and harvested at the blastula stage (stage 8).
(§1) In ovo phosphorylation of tau by GSK-3 beta was performed by microinjection of tau protein into oocytes expressing GSK-3 beta and Xaxin constructs. After 90 minutes, oocytes were homogenized and tau phosphorylation was analyzed in western blots using phospho-specific antibodies as described (Hedgepeth et al., 1997, Develop. Biol. 185:82-91). In vitro assays for GSK-3 beta activity were performed as described (Klein et al., 1996, Proc. Natl. Acad. Sci. USA 93:8455-8459). Recombinant GID-2/his protein (described below) was purified by affinity chromatography and added to in vitro assays at selected concentrations.
In the experiments presented in this example, a tau phosphorylation assay (described in Hedgepeth et al., 1997, Develop. Biol. 185:82-91) was used to examine the activity of GSK-3 beta in Xenopus oocytes in the presence of full length axin and axin deletion mutants. […] Furthermore, GSK-3 beta-dependent tau phosphorylation occurs in oocytes at the same sites (tau serine residues 396 and 404) that are phosphorylated by GSK-3 beta in vitro and occurs with similarly rapid kinetics.
GSK-3 beta was expressed in oocytes together with Myc-tagged full length Xaxin or with the amino-terminal (amino acid residues 63-288), GID-1 (amino acid residues 277-545), or carboxyl-terminal (amino acid residues 429-713) fragments of Xaxin, as depicted in FIG. 1A. Purified tau protein was then microinjected into the oocytes, and phosphorylation of tau was measured by immunoblotting using antibody PHF-1 or with antibodies that detect all (i.e. phosphorylated and non-phosphorylated) forms of tau.
In order to identify the domain of axin necessary for GSK-3 beta binding, multiple Myc-tagged GID deletion constructs (shown diagrammatically in FIG. 3A) were individually expressed in Xenopus oocytes in which GSK-3 beta was also expressed. Tau protein was microinjected into the oocytes, and immunoblotting was performed using phosphorylation-state-specific tau antibodies. A parallel group of oocytes expressing GSK-3 beta and the Myc-tagged GID deletion constructs were lysed, and GID proteins were immunoprecipitated using a Myc-specific antibody. The presence or absence of GSK-3 beta in GID immunoprecipitates was detected using GSK-3 beta-specific antibodies. GID deletion constructs which included amino acid residues 380-404 of Xaxin (i.e. constructs GID-1, GID-2, GID-4, GID-5, and GID-6) bound GSK-3 beta and inhibited GSK-3 beta mediated tau phosphorylation, as indicated in FIG. 3A. […] However, changing leucine residue 392 in FIG. 3B to proline abolishes its activity.

Experiment [2] deals with GSK-3 beta. The experiment in a line: Co-immunoprecipitation of GSK-3 beta with Myc-tagged Xaxin constructs in Xenopus oocytes. The format is binding. The following applies: Myc-tagged construct co-expressed with GSK-3 beta in Xenopus oocytes; anti-Myc IP, anti-GSK-3 beta blot.
Experiment [3] concerns Xenopus embryos. The experiment in a line: Dorsal axis duplication / dorsalization in Xenopus embryos after mRNA injection. The format is in vivo. The note with it: construct expressed in embryos, injection side not stated.
In experiment [4] the test system is beta-catenin. Briefly: beta-catenin protein accumulation in Xenopus oocytes (immunoblot). Format: cell-based. The following applies: construct mRNA expressed in Xenopus oocytes. How it is done:
FIG. 2A is an image of an immunoblot of Xenopus cytoplasmic extracts obtained from Xenopus embryos in which beta-catenin was expressed, using an antibody which binds specifically with beta-catenin (described in McCrea et al., 1993, J. Cell. Biol. 123:477-84). The embryo corresponding to lane 2 was incubated in the presence of 20 millimolar LiCI. Extracts corresponding to lanes 3-5, 7, and 8 were obtained from embryos in which full-length (lane 8) Xaxin or the C-term (lane 3), GID1 (“GID”; lanes 4 and 7), or N-term (lane 5) fragments of Xaxin were expressed.
Although endogenous GSK-3 beta is not present at sufficient levels to detect using the tau assay, inhibition of GSK-3 beta is known to cause stabilization of cytoplasmic beta-catenin (Cadigan et al., 1997, Genes Dev. 11:3286-3305; Miller et al., 1996, Genes Develop. 10:2527-2539), and this serves as a widely used assay for downstream activation of wnt signaling. Inhibition of endogenous GSK-3 beta activity also causes stabilization of beta-catenin in Xenopus embryos and oocytes (Hedgepeth et al., 1997, Develop. Biol. 185:82-91; Yost et al., 1998, Cell 93:1031-1041; Yost et al., 1996, Genes Develop. 10:1443-1454). For this reason, levels of beta-catenin protein were assessed in Xenopus oocytes which had been injected either with full length Xaxin mRNA or with mRNA encoding one of the amino-terminal, GID, or carboxyl-terminal domains of Xaxin.
On the technique in general: Immunoblotting shows a protein as a band on a membrane.

The target in experiment [5] is T1, FL Xaxin (Xenopus laevis, UniProt Q9YGY0).
T1 construct: expressed in transfected cells; host or cells: Saccharomyces cerevisiae
T1 sequence (Q9YGY0 whole entry): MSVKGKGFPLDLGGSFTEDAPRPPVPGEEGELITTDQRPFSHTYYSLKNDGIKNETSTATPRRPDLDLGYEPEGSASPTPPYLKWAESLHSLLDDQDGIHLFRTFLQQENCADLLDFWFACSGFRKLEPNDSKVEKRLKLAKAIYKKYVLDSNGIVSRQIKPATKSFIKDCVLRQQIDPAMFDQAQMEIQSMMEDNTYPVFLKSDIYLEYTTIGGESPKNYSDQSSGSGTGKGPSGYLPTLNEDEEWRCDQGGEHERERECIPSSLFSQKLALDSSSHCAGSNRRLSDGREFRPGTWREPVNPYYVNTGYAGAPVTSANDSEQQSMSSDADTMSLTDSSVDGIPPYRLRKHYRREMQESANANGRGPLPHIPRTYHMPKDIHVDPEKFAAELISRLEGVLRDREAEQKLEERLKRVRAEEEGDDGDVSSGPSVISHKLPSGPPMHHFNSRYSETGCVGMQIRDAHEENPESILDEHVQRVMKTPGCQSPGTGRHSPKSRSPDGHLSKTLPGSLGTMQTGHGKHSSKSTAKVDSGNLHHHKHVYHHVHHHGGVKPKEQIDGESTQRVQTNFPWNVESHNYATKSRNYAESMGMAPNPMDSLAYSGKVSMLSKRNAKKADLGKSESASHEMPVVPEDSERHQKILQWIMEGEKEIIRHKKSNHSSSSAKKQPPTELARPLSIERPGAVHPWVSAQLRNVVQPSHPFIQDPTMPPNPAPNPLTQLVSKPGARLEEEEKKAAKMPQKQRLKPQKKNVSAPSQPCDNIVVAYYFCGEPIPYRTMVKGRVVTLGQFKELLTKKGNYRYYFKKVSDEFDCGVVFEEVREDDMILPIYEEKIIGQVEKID
The experiment in a line: Yeast two hybrid assay, interaction with FL Xaxin. The format is binding. The note with it: beta-galactosidase filter assay in S. cerevisiae. The text has this: FL Xaxin was cloned in frame with the GAL4 DNA binding domain (BD) in plasmid pAS2-1 (Clontech) to yield BD plasmid. Expression of BD plasmid yielded a Xaxin-GAL4 fusion protein. FL Xaxin, deltaDIX Xaxin, and a fragment (designated “AID”) encoding amino acid residues 489-777 of Xaxin were cloned in frame with the GAL4 transcriptional activation domain (AD) in the vector pACT2 to yield AD plasmids. Yeast were transformed with BD and AD plasmids using previously described protocols (Clontech, Palo Alto, Calif.). Transformed colonies were selected and assayed for beta-galactosidase activity in order to detect interacting proteins. In addition, three Xenopus axin partial length cDNAs (designated Y2H 2, Y2H 6, Y2H 7; all in plasmid pACT2) isolated from a previous yeast two hybrid screen (Hedgepeth et al., 1999, Mech. Develop. 80:147-151) were analyzed. Purification of GID
Using the yeast two hybrid assay, the ability of axin to bind with itself, with other members of the wnt pathway, or with the G(alpha)q subunit of heterotrimeric G-proteins, was investigated. […]
Saccharomyces cerevisiae cells were transformed with the bait vector and with one of the target vectors. Interaction was assessed using a filter assay to detect beta-galactosidase activity, as described (Fields et al., 1989, Nature 340:245-247; Harper et al., 1993, Cell 75:805-816). […]

Experiment [6] concerns GSK-3 beta. Briefly: In vitro binding of GSK-3 beta to GID-2/his on nickel agarose. The note with it: 25 nanomolar GSK-3 beta. How it is done:
A cDNA (GID-2) encoding amino acid residues 320-429 of Xaxin was cloned into pET29b (Novagen, Madison, Wis.) in frame with the His-epitope tag. The resulting encoded GID-2/his fusion protein was expressed in BL2I/DE3 cells and purified on nickel agarose according to standard procedures. Purified GID-2/his was added to a reaction cocktail having a final volume of 20 microliters and containing 25 nanomolar recombinantly-generated GSK-3 beta in GSK-3 assay buffer, as described (Klein et al., 1996, Proc. Natl. Acad. Sci. USA 93:8455-8459). This reaction mixture was incubated at 0° C. for one hour. After this incubation period, half of the mixture was assayed for GSK-3 beta activity, and the other half was incubated with nickel-agarose at 4° C. for one hour with rotation. The agarose was washed three times using PBS, and then Laemmli sample buffer was added. The samples were boiled for five minutes and then subjected to immunoblotting using anti-GSK-3 beta antibody.
(§2) GSK-3 beta (25 nanomolar) was incubated with GID-2/his (up to 200-fold molar excess), and each mixture was assayed to detect either protein kinase activity or, in parallel, protein-protein interaction. Interaction between GSK-3 beta and GID-2/his was detected by purification on nickel agarose followed by immunoblotting with GSK-3 beta-specific antibodies. […]

The subject of experiment [7] is GSK-3 beta. The experiment in a line: In vitro GSK-3 beta activity assay with purified GID-2/his. Format: biochemical. The protocol:
as §1
A cDNA (GID-2) encoding amino acid residues 320-429 of Xaxin was cloned into pET29b (Novagen, Madison, Wis.) in frame with the His-epitope tag. The resulting encoded GID-2/his fusion protein was expressed in BL2I/DE3 cells and purified on nickel agarose according to standard procedures. […]
as §2

B1: amino-terminal fragment: Myc-tagged fragment, amino acid residues 63-288 of Xaxin (protein)
chain: RPDLDLGYEPEGSASPTPPYLKWAESLHSLLDDQDGIHLFRTFLQQENCADLLDFWFACSGFRKLEPNDSKVEKRLKLAKAIYKKYVLDSNGIVSRQIKPATKSFIKDCVLRQQIDPAMFDQAQMEIQSMMEDNTYPVFLKSDIYLEYTTIGGESPKNYSDQSSGSGTGKGPSGYLPTLNEDEEWRCDQGGEHERERECIPSSLFSQKLALDSSSHCAGSNRRLSD
modifications: left off: small tags and cut ends
notes: Myc-tagged fragment, amino acid residues 63-288 of Xaxin
As for B1, the “GSK-3 beta-mediated tau phosphorylation (GSK-3 beta activity)” value in experiment [1] is on record as “no effect”. Also, in experiment [2], the “binding with GSK-3 beta (co-immunoprecipitation)” value was “Neither the amino- nor carboxyl-terminal fragments of axin bound”. In addition, the “effect on axial development / axis formation” value in experiment [3] is on record as “no apparent effect”. Further, the accumulation of beta-catenin entry in experiment [4] was “not observed”.

B2: AID: fragment of amino acid residues 489-777 of Xaxin, axin self-interaction domain (protein)
chain: PGTGRHSPKSRSPDGHLSKTLPGSLGTMQTGHGKHSSKSTAKVDSGNLHHHKHVYHHVHHHGGVKPKEQIDGESTQRVQTNFPWNVESHNYATKSRNYAESMGMAPNPMDSLAYSGKVSMLSKRNAKKADLGKSESASHEMPVVPEDSERHQKILQWIMEGEKEIIRHKKSNHSSSSAKKQPPTELARPLSIERPGAVHPWVSAQLRNVVQPSHPFIQDPTMPPNPAPNPLTQLVSKPGARLEEEEKKAAKMPQKQRLKPQKKNVSAPSQPCDNIVVAYYFCGEPIPYR
modifications: left off: large carriers
On to B2, for which the “interaction with FL Xaxin (self-interaction)” value in experiment [5] is recorded as “sufficient to mediate axin self-interaction”.

B3: carboxyl-terminal fragment: Myc-tagged fragment, amino acid residues 429-713 of Xaxin (protein)
chain: SGPSVISHKLPSGPPMHHFNSRYSETGCVGMQIRDAHEENPESILDEHVQRVMKTPGCQSPGTGRHSPKSRSPDGHLSKTLPGSLGTMQTGHGKHSSKSTAKVDSGNLHHHKHVYHHVHHHGGVKPKEQIDGESTQRVQTNFPWNVESHNYATKSRNYAESMGMAPNPMDSLAYSGKVSMLSKRNAKKADLGKSESASHEMPVVPEDSERHQKILQWIMEGEKEIIRHKKSNHSSSSAKKQPPTELARPLSIERPGAVHPWVSAQLRNVVQPSHPFIQDPTMPPN
modifications: left off: small tags and cut ends
notes: Myc-tagged fragment, amino acid residues 429-713 of Xaxin
Regarding B3, the “GSK-3 beta-mediated tau phosphorylation (GSK-3 beta activity)” value in experiment [1] is reported as “no effect”. The “binding with GSK-3 beta (co-immunoprecipitation)” value in experiment [2] is listed as “Neither the amino- nor carboxyl-terminal fragments of axin bound”. Besides, the “effect on axial development / axis formation” value in experiment [3] was “no apparent effect”. Besides, in experiment [4], the accumulation of beta-catenin result was “not observed”.

B4: GID-2/his: His-tagged fusion protein of Xaxin residues 320-429, expressed in E. coli and purified on nickel agarose (protein)
chain: DSEQQSMSSDADTMSLTDSSVDGIPPYRLRKHYRREMQESANANGRGPLPHIPRTYHMPKDIHVDPEKFAAELISRLEGVLRDREAEQKLEERLKRVRAEEEGDDGDVSS
modifications: left off: small tags and cut ends
notes: His-tagged fusion protein of Xaxin residues 320-429, expressed in E. coli and purified on nickel agarose
For the molecule B4, in experiment [6], the “binding of GSK-3 beta (nickel agarose, immunoblot)” value is “bound specifically”. The “GSK-3 beta mediated phosphorylation of the GS-2 peptide” value in experiment [7] (25 nanomolar GSK-3 beta, GID-2/his up to 200-fold molar excess) is listed as “no significant effect”. Also, the “phosphorylation of tau by GSK-3 beta in vitro” value in experiment [7] (GID-2/his at a 200-fold molar excess) is listed as “did not inhibit”.
